According to patent US20210395344A1 (TWIST BIOSCIENCE, published 2021):
Numbering of substitutions follows the chain as printed.

B1: SARS-CoV-2 variant 2-15 (antibody, V domains shown)
VH: EVQLLESGGGLVQPGGSLRLSCAASGFTFSDFAMAWVRQAPGKGLEWVSAISGSGDITYYADSVKGRFTISRDNSKNTLYLQMNSLRAEDTAVYYCAREADGLHSPWHFDLWGQGTLVTVSS
VL: DIQMTQSPSSLSASVGDRVTITCRASQSIDNYLNWYQQKPGKAPKLLIYGVSALQSGVPSRFSGSGSGTDFTLTISSLQPEDFATYYCQQSHSAPLTFGQGTKVEIK
B2: SARS-CoV-2 variant 1-22 (antibody, V domains shown)
VH: EVQLLESGGGLVQPGGSLRLSCAASGFTFSSYAMNWVRQAPGKGLEWVSIISGSGGSTYYADSVKGRFTISRDNSKNTLYLQMNSLRAEDTAVYYCAREGYRDYLWYFDLWGQGTLVTVSS
VL: QSALTQPASVSGSPGQSITISCTGTSTDVGSYNLVSWYQQHPGKAPKLMIYEGSQRPSGVSNRFSGSKSGNTASLTISGLQAEDEADYYCCSYAGSSTVFGGGTKLTVL
B3: SARS-CoV-2 variant 1-21 (antibody, V domains shown)
VH: B2 VH with A33T, N35S
VL: QSALTQPASVSGSPGQSITISCTGTSSDVGSNNLVSWYQQHPGKAPKLMIYEGNKRPSGVSNRFSGSKSGNTASLTISGLQAEDEADYYCCSYAGSVVFGGGTKLTVL
B4: SARS-CoV-2 variant 1-23 (antibody, V domains shown)
VH: B2 VH with M34I, N35S
VL: B2 VL with T27N, S54N, Q55K, S97Y
B5: SARS-CoV-2 variant 1-24 (antibody, V domains shown)
VH: B2 VH
VL: B2 VL with T27S, S31Y, S54N, Q55K, S96G, T98V
B6: SARS-CoV-2 variant 1-10 (antibody, V domains shown)
VH: EVQLLESGGGLVQPGGSLRLSCAASGFTFSSYDMSWVRQAPGKGLEWVSVISGSGGSTYYADSVKGRFTISRDNSKNTLYLQMNSLRAEDTAVYYCAKGPLVGWYFDLWGQGTLVTVSS
VL: QSALTQPASVSGSPGQSITISCTGTSSNVGSYNLVSWYQQHPGKAPKLMIYEGTKRPSGVSNRFSGSKSGNTASLTISGLQAEDEADYYCCSYAGSSSFVVFGGGTKLTVL
B7: SARS-CoV-2 variant 1-47 (antibody, V domains shown)
VH: EVQLLESGGGLVQPGGSLRLSCAASGFTFSSQAMSWVRQAPGKGLEWVSAISGSGGGTYYADSVKGRFTISRDNSKNTLYLQMNSLRAEDTAVYYCAKDRRFGEFDPWGQGTLVTVSS
VL: B6 VL with N28G, T54I
B8: SARS-CoV-2 variant 1-8 (antibody, V domains shown)
VH: B6 VH
VL: QSALTQPASVSGSPGQSITISCTGTSNDVGSYNLVSWYQQHPGKAPKLMIYEGSKRPSGVSNRFSGSKSGNTASLTISGLQAEDEADYYCCSYAGSRYVVFGGGTKLTVL
B9: SARS-CoV-2 variant 1-26 (antibody, V domains shown)
VH: EVQLLESGGGLVQPGGSLRLSCAASGFTFSSYAISWVRQAPGKGLEWVSAISGSGYSTYYADSVKGRFTISRDNSKNTLYLQMNSLRAEDTAVYYCARGAPDSSGYYFQGEVYFDYWGQGTLVTVSS
VL: B6 VL with N28D, S31G, Y93F, A94V, G95R, S98A, F99H
B10: SARS-CoV-2 variant 1-9 (antibody, V domains shown)
VH: B6 VH
VL: B6 VL with N28D, S31D, T54S, K55N
B11: SARS-CoV-2 variant 1-7 (antibody, V domains shown)
VH: B6 VH
VL: B6 VL with N28D, V29F, T54N, S98T
B12: SARS-CoV-2 variant 1-38 (antibody, V domains shown)
VH: EVQLLESGGGLVQPGGSLRLSCAASGITFSSYAMSWVRQAPGKGLEWVSGISGSGGSTYYADSVKGRFTISRDNSKNTLYLQMNSLRAEDTAVYYCAKHGSGTIFGVVIAKYYFDYWGQGTLVTVSS
VL: B8 VL with N27S, V29I, S54T, Y98T, V99Y
B13: SARS-CoV-2 variant 1-17 (antibody, V domains shown)
VH: EVQLLESGGGLVQPGGSLRLSCAASGFTFSSYAMYWVRQAPGKGLEWVSAISGSAGSTYYADSVKGRFTISRDNSKNTLYLQMNSLRAEDTAVYYCARDTNDFWSGYSIFDPWGQGTLVTVSS
VL: B8 VL with N27S, V29I, S54T, Y98T, V99Y
B14: SARS-CoV-2 variant 1-37 (antibody, V domains shown)
VH: EVQLLESGGGLVQPGGSLRLSCAASGFTFTSYAMNWVRQAPGKGLEWVTAISGSGGSTFYADSVKGRFTISRDNSKNTLYLQMNSLRAEDTAVYYCTRPPYGDYGDYWGQGTLVTVSS
VL: B8 VL with N27S, V29I, S54T, Y98T, V99Y
B15: SARS-CoV-2 variant 1-42 (antibody, V domains shown)
VH: B12 VH with I27V, G50A, S52T
VL: B8 VL with N27S, S31R, S54G, G95S, R97S, Y98T, V99L

Columns and labels:
Assay in all cases: phage ELISA
[1] = biological target: COVID S1 RBD Fc fusion (Antigen 1) (SARS-CoV-2, UniProt P0DTC2 319-541)
[2] = biological target: COVID S1 RBM Fc fusion (Antigen 2) (SARS-CoV-2, UniProt P0DTC2 437-508)
[3] = biological target: T1, COVID S1 RBD Fc fusion (Antigen 1) (SARS-CoV-2, UniProt P0DTC2 319-541)
T1 construct: domain: RBD

[4] = biological target: T2, COVID S1 RBM Fc fusion (Antigen 2) (SARS-CoV-2, UniProt P0DTC2 437-508)
T2 construct: domain: RBM

[5] = biological target: T3, SARS-CoV-2 S1 (subunit 1) protein (SARS-CoV-2, UniProt P0DTC2 16-685)
T3 construct: also called biotinylated SARS-CoV-2 S1

S1-Fc = S1-Fc (SARS-CoV-2, UniProt P0DTC2 16-685)

Binder	specificity ELISA, fold over background [1]	specificity ELISA, percent binding relative to Acro S1 [1]	specificity ELISA, fold over background [2]	specificity ELISA, percent binding relative to Acro S1 [2]	specificity ELISA, fold over background [3]	specificity ELISA, percent binding relative to Acro S1 [3]	specificity ELISA, fold over background [4]	specificity ELISA, percent binding relative to Acro S1 [4]	screening ELISA (Avg), fold over background [5]	specificity ELISA, fold over background (S1-Fc)	specificity ELISA, percent binding relative to Acro S1 (S1-Fc)
B1	28.1 fold over background	90.6%	0.9 fold over background	3%	–	–	–	–	–	–	–
B2	–	–	–	–	26.5 fold over background	81.2%	1.5 fold over background	4.7%	40.6 fold over background	–	–
B3	–	–	–	–	14.8 fold over background	75.7%	1.4 fold over background	7%	47.6 fold over background	–	–
B4	–	–	–	–	3.6 fold over background	70.9%	1.6 fold over background	32%	23.1 fold over background	1.6 fold over background	31.1%
B5	–	–	–	–	11 fold over background	85.4%	1.3 fold over background	10.3%	32.9 fold over background	–	–
B6	–	–	–	–	17.4 fold over background	100%	1.1 fold over background	6.2%	16.9 fold over background	–	–
B7	–	–	–	–	5.5 fold over background	68.9%	0.9 fold over background	11.1%	22.6 fold over background	–	–
B8	–	–	–	–	11.2 fold over background	92.9%	1.2 fold over background	10.3%	19.3 fold over background	–	–
B9	–	–	–	–	1.1 fold over background	76.8%	1 fold over background	74.7%	19.5 fold over background	1.3 fold over background	98%
B10	–	–	–	–	9.8 fold over background	91.1%	1 fold over background	9.3%	18.5 fold over background	–	–
B11	–	–	–	–	3.3 fold over background	48.7%	1.6 fold over background	23%	22.5 fold over background	–	–
B12	–	–	–	–	1.5 fold over background	128%	1.2 fold over background	101%	20.2 fold over background	0.9 fold over background	82.8%
B13	–	–	–	–	20.1 fold over background	79.8%	1.3 fold over background	5.2%	27.4 fold over background	–	–
B14	–	–	–	–	2 fold over background	17.7%	1.4 fold over background	12.3%	27 fold over background	5.4 fold over background	46.7%
B15	–	–	–	–	20.8 fold over background	91.4%	1 fold over background	4.2%	34.5 fold over background	–	–
